US11639503B2, “Anti-chymase aptamer and use for same” (RIBOMIC INC., priority 2017, dated 2023)
Oligonucleotides are written 5' to 3', each unit as a sugar letter and its base; * is a phosphorothioate linkage, no mark a phosphodiester; rarer units and linkages stand in square brackets, end groups in braces. Plain capitals give the bases only. r = 2'-OH (RNA); f = 2'-fluoro

T1: chymase (recombinant, manufactured by SIGMA) (Homo sapiens, UniProt P23946)
T1 construct: purchased SIGMA
T1 sequence (P23946 22-247): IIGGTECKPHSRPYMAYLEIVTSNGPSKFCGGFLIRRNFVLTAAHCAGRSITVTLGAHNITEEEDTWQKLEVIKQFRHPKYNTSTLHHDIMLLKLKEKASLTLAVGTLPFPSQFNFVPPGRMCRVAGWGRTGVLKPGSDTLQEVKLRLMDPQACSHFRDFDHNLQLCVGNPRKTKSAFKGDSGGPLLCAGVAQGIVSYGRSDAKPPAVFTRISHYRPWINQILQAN

T2: chymase purified from human skin mast cell (native, Calbiochem) (Homo sapiens, UniProt P23946)
T2 construct: Here, the native is chymase purified from human skin mast cell; purchased Calbiochem; host or cells: human skin mast cell (tissue-derived)
T2 sequence (P23946 22-247): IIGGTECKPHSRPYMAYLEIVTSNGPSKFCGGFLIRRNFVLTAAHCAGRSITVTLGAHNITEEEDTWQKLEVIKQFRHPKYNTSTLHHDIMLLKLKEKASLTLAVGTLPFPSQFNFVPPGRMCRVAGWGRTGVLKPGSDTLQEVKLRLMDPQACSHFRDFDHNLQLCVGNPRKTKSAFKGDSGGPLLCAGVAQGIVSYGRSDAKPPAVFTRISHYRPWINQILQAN


Tests used:
[1] = target: T1, chymase (recombinant, manufactured by SIGMA); assay: chymase enzyme activity inhibition, synthetic substrate Suc-Ala-Ala-Pro-Phe-MCA; assay type: biochemical
Description: A first method employs a synthetic substrate. A useful chymase substrate is Suc-Ala-Ala-Pro-Phe-MCA (4-methylcoumaryl-7-amide group) (manufactured by Peptide Institute, Inc.), which contains the 4-amino acid peptide “Ala-Ala-Pro-Phe” (SEQ ID NO: 41), a standard substrate for chymotrypsin-like proteases.
The assay is performed using a 96-well plate (F16 Black Maxisorp Fluoronunc, manufactured by Nunc), with a reaction mixture volume of 100 μL, in a buffer solution (solution C; see Example 2 below). First, each nucleic acid is prepared in solution C to obtain 50 μL solutions. After 10 μL of the 1 mM substrate prepared in solution C is added, the plate is set to the microplate reader SpectraMax190 (manufactured by Molecular Devices Corporation), and incubated at 37° C. for 5 minutes. Separately, 0.05 μg of chymase (recombinant, manufactured by SIGMA) is diluted in solution C, and 40 μL of this dilution is incubated at 37° C. for 5 minutes. The chymase solution is added to the mixture of the nucleic acid and substrate to initiate an enzyme reaction. The plate containing the reaction mixture is set to the microplate reader SpectraMax190 (manufactured by Molecular Devices Corporation), and examined for time-dependent changes in the fluorescence intensity at 37° C. for 5 minutes (excitation wavelength 380 nm, detection wavelength 460 nm). A linear approximation of the increase in the fluorescence of the AMC (7-amino-4-methylcoumarine) released from the substrate by chymase activity is generated, and its slope is taken as the initial reaction velocity. For control, samples are treated and analyzed in the same manner in two cases: use of a nucleic acid pool containing a random sequence of 30 or 40 nucleotides (negative control), and use of chymostatin, a known chymotrypsin-like serine protease inhibitor (positive control). Taking the initial reaction velocity without the nucleic acid and inhibitor as a 100% enzyme activity, the inhibitory rate for each test substance is calculated, and the inhibitor concentration required to cause a 50% inhibition of the enzyme activity (IC50) is determined.
Whether the nucleic acids shown by SEQ ID NO: 1-8 inhibit the enzyme activity of chymase was determined as described below. The chymase substrate used was Suc-Ala-Ala-Pro-Phe-MCA (manufactured by Peptide Institute, Inc.), which contains the 4-amino-acid peptide Ala-Ala-Pro-Phe, a standard substrate for chymotrypsin-like proteases. Here, Suc is a protecting succinyl group, and MCA is a 4-methylcoumaryl-7-amide group; upon cleavage of the C-terminal side of phenylalanine, AMC (7-amino-4-methylcoumarine) is released. By detecting the fluorescence of this AMC, the enzyme activity of chymase can be determined. The assay was performed using a 96-well plate (F16 Black Maxisorp Fluoronunc, manufactured by Nunc), with a reaction mixture volume of 100 μL, in solution C as a buffer solution. Here, the solution C is a mixed solution of 145 mM sodium chloride, 5.4 mM potassium chloride, 1.8 mM calcium chloride, 0.8 mM magnesium chloride, 20 mM Tris (pH 7.6), and 0.05% Tween20. First, nucleic acid was serially diluted in solution C to obtain 50 μL solutions. After 10 μL of the 1 mM substrate prepared in solution C was added thereto, the plate was set to the microplate reader SpectraMax190 (manufactured by Molecular Devices Corporation), and incubated at 37° C. for 5 minutes. […] The chymase solution was added to the mixture of the nucleic acid and substrate to initiate an enzyme reaction. The final chymase concentration in the reaction mixture was 16.7 nM, the final substrate concentration being 100 μM. The plate containing the reaction mixture was set to the microplate reader SpectraMax190 (manufactured by Molecular Devices Corporation), and examined for time-dependent changes in the fluorescence intensity at 37° C. for 5 minutes (or 30 minutes) (excitation wavelength 380 nm, detection wavelength 460 nm). […]

[2] = target: T2, chymase purified from human skin mast cell (native, Calbiochem); assay: chymase enzyme activity inhibition, native substrate angiotensin I (His-Leu fluorescence); assay type: biochemical; details: mean of 2 or 3 measurements
Description: A second method of evaluation employs a native substrate. A useful native substrate for chymase is angiotensin I. Here, His-Leu, a peptide fragment released upon degradation of angiotensin I, is fluorescently derivatized, and the fluorescence intensity therefrom is quantified.
In the assay, an enzyme reaction is carried out in 50 μL of solution C. First, 0.3-0.75 ng of chymase (recombinant, manufactured by SIGMA; or native, manufactured by Calbiochem) is diluted in solution C to obtain 5 μL chymase solution. Each nucleic acid is prepared in solution C to obtain 25 μL solutions. 5 μL of each chymase dilution and 25 μL of each nucleic acid solution are mixed, and then the mixture is incubated at 37° C. for 5 minutes. Separately, 20 μL of 125 μM angiotensin I (manufactured by Peptide Institute, Inc.) is prepared in solution C and incubated at 37° C. for 5 minutes. The angiotensin I solution is added to the mixture of chymase and nucleic acid, and the enzyme reaction is initiated. After the reaction was allowed to proceed at 37° C. for 90 minutes, 25 μL of ice-cooled 30% trichloroacetic acid solution is added to terminate the reaction. The entire mixture is centrifuged at 4° C., 14000 rpm for 10 minutes, and 30 μL of the resulting supernatant is used for the subsequent reaction for fluorescent derivatization.
After 30 μL of the supernatant is added to a 96-well plate (Black, manufactured by Costar), 15 μL of 2% o-phthalaldehyde (manufactured by SIGMA) solution in methanol and 170 μL of 0.3M NaOH solution are mixed in each well, and the plate is allowed to stand at room temperature for 10 minutes. Subsequently, 25 μL of 3M HCl solution is added to terminate the reaction. The plate is set to the microplate reader SpectraMax190 (manufactured by Molecular Devices Corporation), and the fluorescence intensity is determined at an excitation wavelength of 355 nm and a fluorescence wavelength of 460 nm.
For control, samples are treated and analyzed in the same manner in two cases: use of SEQ ID NO: 58 (negative control) and use of chymostatin, a known chymotrypsin-like serine protease inhibitor (positive control). In both cases, fluorescence intensity obtained at 0 minute reaction time serves as a blank determination. Taking the fluorescence intensity detected with the addition of an equal volume of solution C, in place of each nucleic acid, in the chymase enzyme reaction as 100%, the inhibitory rate for each test substance is calculated, and the inhibitor concentration required to cause a 50% inhibition of the enzyme activity (IC50) is determined.
Whether the nucleic acids shown by SEQ ID NO: 9 and 10 inhibit the enzyme activity of chymase was determined by the following method. Angiotensin I is converted by chymase to angiotensin II, during which a peptide fragment His-Leu is released. Since the peptide His-Leu is fluorescently derivatized by o-phthalaldehyde, its fluorescence intensity can be quantitatively measured.
The total volume of solution for an enzyme reaction in the assay was set to 50 μL, and the reaction was performed in solution C buffer. At first, native (manufactured by Calbiochem) was diluted with solution C to give 5 μL thereof. Here, the native is chymase purified from human skin mast cell. The nucleic acid was serially diluted with solution C at a concentration of 0.0027-2 μM to give 25 μL thereof. The chymase solution (5 μL) and the nucleic acid solution (25 μL) were mixed, and the mixture was incubated at 37° C. for 5 min. On the other hand, […] angiotensin I (manufactured by PEPTIDE INSTITUTE, INC.) was prepared in solution C to give 20 μL thereof, which was incubated at 37° C. for 5 min. The angiotensin I solution was added to a mixture of chymase and nucleic acid to start an enzyme reaction. The final chymase concentration of the reaction solution was 0.5 nM, and the final substrate concentration was 50 μM. […]

[3] = Table 5, MCA substrate, amount of chymase 0.005 μg instead of 0.05 μg, one measurement
[4] = Table 1, substrate Suc-Ala-Ala-Pro-Phe-MCA 100 μM, chymase 0.05 μg (16.7 nM), 37° C., mean of 2 or 3 measurements

Row | Molecule | IC50 [1, 4] [nM] | other results
1 | 23 (GGCAGAUGAUCGGACAUAACAGUAGAUAGAGUUAAAACUGGGGUGUCAA; 2'-fluoro at CU, RNA at AG, backbone not given here) [compound 23] | – | IC50 [1, 3]: 7.8 nM
2 | 24 (GGCAGAUGAUCGGACAUAACAUAGAUAGAGUUAAAAUGGGGUGUCAA; 2'-fluoro at CU, RNA at AG, backbone not given here) [compound 24] | – | IC50 [1, 3]: 3.7 nM
3 | 25 (GGCAGAUGAUCGGACAUAACAAGAUAGAGUUAAAUGGGGUGUCAA; 2'-fluoro at CU, RNA at AG, backbone not given here) [compound 25] | – | IC50 [1, 3]: 5.8 nM
4 | CC(C)C[C@H](NC(=O)[C@@H](NC(=O)N[C@@H](Cc1ccccc1)C(=O)O)[C@@H]1CCN=C(N)N1)C(=O)N[C@H](C=O)Cc1ccccc1 [chymostatin, reference compound] | 100 to 200 | IC50 ([2]; Table 2, substrate angiotensin I 50 μM, chymase 0.5 nM, 37° C. 90 min): 350 to 500 nM
5 | 7 (nucleic acid, aptamer) rGrGrGrArGfCrArGrGrArGrArGrArGrGfUfCrArGrAfUrGfUfUfUrGrGfUrArGfUrArAfCfUrGrGrArAfUrArGrGrGrGfCfUrAfCrArGrGfCfCfUrAfUrGfCrGfUrGfCfUrArGfUrGfUrGrA | 52 | –
6 | 8 (nucleic acid, aptamer) rGrGrGrArGfCrArGrGrArGrArGrArGrGfUfCrArGrAfUrGrAfUfUrGrAfCrGrAfCfUrAfUrArGrGfUrArAfCfCfUfUfUrAfCrGrGrGrGrGfCfCfUrAfUrGfCrGfUrGfCfUrArGfUrGfUrGrA | 35 | –
7 | 1 (nucleic acid, aptamer) rGrGrGrArGfCrArGrGrArGrArGrArGrGfUfCrArGrAfUrGrArGfCrAfUrGfCfUfUfUfUfUrGrGfUrArAfCfCrGrAfUrArAfUrGrGrGrGrGfCfCfUrAfUrGfCrGfUrGfCfUrArGfUrGfUrGrA | 41 | –
8 | 2 (nucleic acid, aptamer) rGrGrGrArGfCrArGrGrArGrArGrArGrGfUfCrArGrAfUrGrAfUfCrGrGrAfCrAfUrArAfCrAfUfUrGfUfUrGrGrGrGfUrGfUfCrArArGrGfCfCfUrAfUrGfCrGfUrGfCfUrArGfUrGfUrGrA | 31 | IC50 ([2]; Table 3, angiotensin I as substrate, >1 = no inhibitory activity up to 1 μM): 10 nM; IC50 ([2]; Table 4, angiotensin I as substrate): 10 nM; IC50 ([2]; Table 6, angiotensin I as substrate): 10 nM
9 | 3 (nucleic acid, aptamer) rGrGrGrArGfCrArGrGrArGrArGrArGrGfUfCrArGrAfUrGrAfUrArAfCfCrArGfUfUrGrGrGrGrGrGfUfCrArAfUfUrAfCrAfUrGrGrGrAfCfCfUrAfUrGfCrGfUrGfCfUrArGfUrGfUrGrA | 26 | –
10 | 4 (nucleic acid, aptamer) rGrGrGrArGfCrArGrGrArGrArGrArGrGfUfCrArGrAfUrGfUrArAfCfUfCfUrAfUfUrGrArGrGrGrGfCrAfUfCrArGfCrAfCrArGfUrArGfCfCfUrAfUrGfCrGfUrGfCfUrArGfUrGfUrGrA | 10.8 | –
11 | 5 (nucleic acid, aptamer) rGrGrGrArGfCrArGrGrArGrArGrArGrGfUfCrArGrAfUrGrAfUrGrAfCfCrGrAfUfUrAfUrArGrGfUrArAfCfCrAfCfUfUrArGrGrGrGrGfCfCfUrAfUrGfCrGfUrGfCfUrArGfUrGfUrGrA | 7 | –
12 | 6 (nucleic acid, aptamer) rGrGrGrArGfCrArGrGrArGrArGrArGrGfUfCrArGrAfUrGfUfCrAfUrGrAfCfUfUrAfUrArGrGfUrArAfCfCrGrAfUrArAfUrGrGrGrGrGfCfCfUrAfUrGfCrGfUrGfCfUrArGfUrGfUrGrA | 5.5 | –
